In patent WO2019198731A1:

Biological target: three HER2 antigens (HER2 fragment proteins used for panning)
Experiment: monoclonal phage ELISA on immobilised HER2 antigens

B1: H44 clone (VHH displayed on monoclonal M13 phage) (VHH)
VHH: QVQLVESGGTLVQAGGSLRLSCAASGRTFSSYAMGWFRQAPGKEREFVAAIRLKTDYSDSVKGRFTISRDNAKNTVYLQMNSLKPEDTAVYYCAAWLRRGYGASWYLTGADPRYWGRGTRVTVSS
Work on B1 yielded an abs. at 450 nm of over 1.5.
